T1: ARHGAP21, Q5T5U3
T1 sequence (Q5T5U3 45-169, limits assumed, looked up): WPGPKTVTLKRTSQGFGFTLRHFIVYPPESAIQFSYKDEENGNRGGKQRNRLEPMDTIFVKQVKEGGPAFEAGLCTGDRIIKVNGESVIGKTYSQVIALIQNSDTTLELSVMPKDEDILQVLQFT

T2: DFNB31_1, Q9P202
T2 sequence (Q9P202 135-233, limits assumed, looked up): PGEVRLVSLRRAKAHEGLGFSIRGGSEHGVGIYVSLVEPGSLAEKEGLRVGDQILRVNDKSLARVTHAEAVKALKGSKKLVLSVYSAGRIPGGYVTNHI

T3: GRIP1_7, Q9Y3R0
T3 sequence (Q9Y3R0 999-1096, limits assumed, looked up): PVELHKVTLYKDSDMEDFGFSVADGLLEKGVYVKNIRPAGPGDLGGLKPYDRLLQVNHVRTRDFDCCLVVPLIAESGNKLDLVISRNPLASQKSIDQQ

T4: HTRA3, P83110
T4 sequence (P83110 354-453, limits assumed, looked up): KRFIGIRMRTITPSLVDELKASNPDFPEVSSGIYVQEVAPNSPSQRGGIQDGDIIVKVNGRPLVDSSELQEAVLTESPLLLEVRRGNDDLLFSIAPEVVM

T5: LIN7C, Q9NUP9
T5 sequence (Q9NUP9 88-185, limits assumed, looked up): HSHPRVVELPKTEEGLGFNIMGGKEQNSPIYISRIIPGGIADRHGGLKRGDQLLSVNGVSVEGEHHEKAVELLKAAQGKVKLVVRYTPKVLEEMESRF

T6: LNX2_3, Q8N448
T6 sequence (Q8N448 463-564, limits assumed, looked up): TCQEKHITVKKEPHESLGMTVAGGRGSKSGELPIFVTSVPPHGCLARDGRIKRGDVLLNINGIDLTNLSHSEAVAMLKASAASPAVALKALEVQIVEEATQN

T7: MPDZ_5, O75970
T7 sequence (O75970 695-796, limits assumed, looked up): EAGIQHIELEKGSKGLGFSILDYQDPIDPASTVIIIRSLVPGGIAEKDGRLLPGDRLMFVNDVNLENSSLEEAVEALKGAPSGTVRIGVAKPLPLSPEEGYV

T8: PARD3B_1, Q8TEW8
T8 sequence (Q8TEW8 196-299, limits assumed, looked up): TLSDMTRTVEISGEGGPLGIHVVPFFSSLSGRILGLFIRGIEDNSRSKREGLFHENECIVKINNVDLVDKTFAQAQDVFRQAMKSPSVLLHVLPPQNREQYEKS

T9: PDZD2_2, O15018
T9 sequence (O15018 329-429, limits assumed, looked up): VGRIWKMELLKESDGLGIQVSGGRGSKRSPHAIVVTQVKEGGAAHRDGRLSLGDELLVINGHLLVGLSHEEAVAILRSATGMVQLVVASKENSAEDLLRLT

T10: SNTA1, Q13424
T10 sequence (Q13424 82-180, limits assumed, looked up): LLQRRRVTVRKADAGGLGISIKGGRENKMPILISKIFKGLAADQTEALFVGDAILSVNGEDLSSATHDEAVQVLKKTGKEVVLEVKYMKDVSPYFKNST

T11: TX1BP3, O14907
T11 sequence (O14907 10-122, limits assumed, looked up): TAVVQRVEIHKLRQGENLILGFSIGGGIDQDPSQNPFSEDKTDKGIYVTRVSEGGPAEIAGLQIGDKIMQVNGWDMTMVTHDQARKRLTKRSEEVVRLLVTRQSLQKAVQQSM


Key:
Assay in all cases: holdup assay
Design in all cases: key: below the threshold = too weak to quantify, mostly under pKd 3.1 to 4
Conditions in all cases: plain residues with an end cap or a label only (N-terminal biotin on a linker: ado-ado)
[1] = biological target: T1, ARHGAP21, Q5T5U3
[2] = biological target: T2, DFNB31_1, Q9P202
[3] = biological target: DLG2_3, Q15700
[4] = biological target: FRMPD2_1, Q68DX3
[5] = biological target: FRMPD3, Q5JV73
[6] = biological target: GIPC2, Q8TF65
[7] = biological target: GOPC, Q9HD26
[8] = biological target: GORASP2, Q9H8Y8
[9] = biological target: GRID2IP_2, A4D2P6
[10] = biological target: T3, GRIP1_7, Q9Y3R0
[11] = biological target: T4, HTRA3, P83110
[12] = biological target: Inadl_1, Q8NI35
[13] = biological target: Inadl_3, Q8NI35
[14] = biological target: Inadl_5, Q8NI35
[15] = biological target: LAP2, Q96RT1
[16] = biological target: T5, LIN7C, Q9NUP9
[17] = biological target: T6, LNX2_3, Q8N448
[18] = biological target: T7, MPDZ_5, O75970
[19] = biological target: NHERF2_2, Q15599
[20] = biological target: T8, PARD3B_1, Q8TEW8
[21] = biological target: T9, PDZD2_2, O15018
[22] = biological target: SCRIB_2, Q14160
[23] = biological target: T10, SNTA1, Q13424
[24] = biological target: TJP1_2, Q07157
[25] = biological target: T11, TX1BP3, O14907

Inadl_3, Q8NI35, sequence (Q8NI35 359-469): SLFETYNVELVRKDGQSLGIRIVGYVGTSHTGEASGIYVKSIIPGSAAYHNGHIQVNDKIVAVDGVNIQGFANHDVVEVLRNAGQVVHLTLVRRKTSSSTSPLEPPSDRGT
Inadl_1, Q8NI35, sequence (Q8NI35 113-229): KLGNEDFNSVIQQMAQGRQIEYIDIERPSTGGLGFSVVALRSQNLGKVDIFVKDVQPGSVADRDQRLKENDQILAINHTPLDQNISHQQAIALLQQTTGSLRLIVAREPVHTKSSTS
Inadl_5, Q8NI35, sequence (Q8NI35 673-780): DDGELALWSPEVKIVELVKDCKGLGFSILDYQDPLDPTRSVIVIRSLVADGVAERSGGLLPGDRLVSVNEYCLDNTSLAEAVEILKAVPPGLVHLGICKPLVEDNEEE
SCRIB_2, Q14160, sequence (Q14160 857-960): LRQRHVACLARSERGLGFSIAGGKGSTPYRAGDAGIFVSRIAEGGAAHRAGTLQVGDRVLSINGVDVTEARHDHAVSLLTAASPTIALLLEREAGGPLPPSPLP
GRID2IP_2, A4D2P6, sequence (A4D2P6 272-370): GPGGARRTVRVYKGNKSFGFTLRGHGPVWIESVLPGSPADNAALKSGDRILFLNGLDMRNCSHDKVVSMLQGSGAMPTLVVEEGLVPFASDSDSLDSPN
GIPC2, Q8TF65, sequence (Q8TF65 112-203): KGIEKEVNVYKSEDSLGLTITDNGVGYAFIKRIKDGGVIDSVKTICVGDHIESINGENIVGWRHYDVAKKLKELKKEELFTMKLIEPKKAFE
TJP1_2, Q07157, sequence (Q07157 181-274): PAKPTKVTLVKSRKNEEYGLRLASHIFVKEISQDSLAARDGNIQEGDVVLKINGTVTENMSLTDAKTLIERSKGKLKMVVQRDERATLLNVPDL
FRMPD2_1, Q68DX3, sequence (Q68DX3 770-861): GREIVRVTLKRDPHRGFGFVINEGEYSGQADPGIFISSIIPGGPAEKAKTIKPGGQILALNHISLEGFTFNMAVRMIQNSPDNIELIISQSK
FRMPD3, Q5JV73, sequence (Q5JV73 12-100): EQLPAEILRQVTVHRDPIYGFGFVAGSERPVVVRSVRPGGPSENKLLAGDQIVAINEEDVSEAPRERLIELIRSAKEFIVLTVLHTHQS
LAP2, Q96RT1, sequence (Q96RT1 other isoform, or with tags, fused parts or gaps): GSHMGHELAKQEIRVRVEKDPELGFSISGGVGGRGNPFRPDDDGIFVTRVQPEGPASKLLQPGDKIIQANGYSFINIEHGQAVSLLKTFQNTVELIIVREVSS
NHERF2_2, Q15599, sequence (Q15599 142-238): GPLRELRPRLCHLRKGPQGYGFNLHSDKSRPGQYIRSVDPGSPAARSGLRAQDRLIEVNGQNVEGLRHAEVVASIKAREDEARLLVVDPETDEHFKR

Row | pKd [1] | pKd [2] | pKd [3] | pKd [4] | pKd [5] | pKd [6] | pKd [7] | pKd [8] | pKd [9] | pKd [10] | pKd [11] | pKd [12] | pKd [13] | pKd [14] | pKd [15] | pKd [16] | pKd [17] | pKd [18] | pKd [19] | pKd [20] | Binder | also measured
1 | 4.08 | 3.57 | 4.35 | 3.71 | below the threshold | 3.6 | 4.08 | 4.26 | below the threshold | below the threshold | below the threshold | below the threshold | below the threshold | 3.58 | below the threshold | below the threshold | below the threshold | below the threshold | below the threshold | below the threshold | PPYRHRNTVV [ERBB4, Q15303] | pKd [21]: 4.25; pKd [22]: below the threshold; pKd [23]: 5.32; pKd [24]: below the threshold; pKd [25]: 4.13
2 | 4.37 | below the threshold | below the threshold | below the threshold | below the threshold | below the threshold | 3.5 | below the threshold | 4.37 | below the threshold | below the threshold | below the threshold | below the threshold | below the threshold | below the threshold | below the threshold | below the threshold | below the threshold | 4.44 | 3.71 | SARSRLSSNL [HCN2, Q9UL51] | pKd [21]: 3.74; pKd [22]: below the threshold; pKd [23]: below the threshold; pKd [24]: below the threshold; pKd [25]: 4.23
3 | 3.91 | below the threshold | below the threshold | below the threshold | below the threshold | below the threshold | below the threshold | below the threshold | below the threshold | below the threshold | below the threshold | below the threshold | below the threshold | below the threshold | below the threshold | below the threshold | below the threshold | below the threshold | below the threshold | below the threshold | GSGAVEMESV [AQP6, Q13520] | pKd [21]: 3.7; pKd [22]: below the threshold; pKd [23]: below the threshold; pKd [24]: below the threshold; pKd [25]: below the threshold
4 | 3.74 | below the threshold | below the threshold | below the threshold | below the threshold | below the threshold | below the threshold | below the threshold | below the threshold | below the threshold | below the threshold | below the threshold | below the threshold | below the threshold | below the threshold | below the threshold | below the threshold | below the threshold | 3.91 | below the threshold | IKAIVDLTGL [TRAF2, Q12933] | pKd [21]: below the threshold; pKd [22]: below the threshold; pKd [23]: below the threshold; pKd [24]: below the threshold; pKd [25]: below the threshold
5 | 4.41 | below the threshold | 3.61 | below the threshold | 3.66 | below the threshold | below the threshold | below the threshold | below the threshold | below the threshold | 4.17 | below the threshold | 4.23 | below the threshold | 3.69 | 3.66 | below the threshold | below the threshold | 4.48 | 5.18 | CLREWCDAFL [BANF1, O75531] | pKd [21]: below the threshold; pKd [22]: below the threshold; pKd [23]: below the threshold; pKd [24]: below the threshold; pKd [25]: 4.62
6 | below the threshold | 3.67 | 4.44 | below the threshold | below the threshold | 3.65 | below the threshold | below the threshold | 3.54 | below the threshold | below the threshold | below the threshold | 3.68 | below the threshold | 4.46 | 4.29 | below the threshold | below the threshold | below the threshold | below the threshold | RRISSLESEV [GRIN2C, Q14957] | pKd [21]: 4.98; pKd [22]: 4.28; pKd [23]: 4.53; pKd [24]: below the threshold; pKd [25]: 5

— publication PMC9482650, “Quantitative fragmentomics allow affinity mapping of interactomes” (Nature Communications, 2022)
